{"source": "the supplement of paper PMC9170038", "data": [{"tested_on": "MS2 coat protein", "assay": "apparent KD of MS2 coat protein, switch OFF state (with FMN for OFF switches, without FMN for ON switches); designed switch direction (-1 OFF switch, 1 ON switch): 1; higher = weaker reporter binding", "details": "FMN input: 0 or 200 uM; Eterna round: R93 (includes R88 designs)", "method_in_brief": "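Apparent KD is reported per design as the median of normalised binding-curve fits across its clusters. The RNA switches were made by on-chip transcription from Illumina sequencing clusters. SNAP-549-labelled MS2 coat protein was then added in twofold steps (0.7 or 1.5 nM to 3 µM; 0.8–1.5 h to 10–20 min per step) in 100 mM Tris-HCl pH 7.5, 80 mM KCl, 4 mM MgCl2, without or with constant ligand.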", "units": {"apparent KD of MS2 coat protein": "nM"}, "values": [{"sequence": "AAAAAACAUGAGGAUCACCCAUGUGCAAAAUUCGCAGGAUAUCCCUUUUUUAAAUGGGAGGGAGAAGGGUGUAAAA [Nob's Hobby 18 - Jieux - Same State 1]", "apparent KD of MS2 coat protein": 47.4}, {"sequence": "AACAAUCUAUCUGAGGAUAUCAUUUCAAAGACAUGAGGAUCACCCAUGUCCAGGAAAACUGGAAAUGAGAAGGCAGAUAGAUUGA [SS2: 1106]", "apparent KD of MS2 coat protein": 9.31}, {"sequence": "UAGGGAACAGGGUAGGAUAUGCAUGGUCGUACAUGAGGAUCACCCAUGUAGCCUAGAAAAUAAAUGCAGAAGGACCAAAAGAAAA [Ononmaesra]", "apparent KD of MS2 coat protein": 48.3}, {"sequence": "ACUAUACAUGAGGAUCACCCAUGUUAGCUGGGCGAAGGAUAUGUAGAUGGAUAAAAAUAUGCAGAAGGUCGAUAAC [JR_SS001_Sub210]", "apparent KD of MS2 coat protein": 77.2}, {"sequence": "AAGAAACAUGAGGAUCACCCAUGUCAAGAGAGACUAGGAUAUCUGAAUUAAUUAAAUUAAGGAGAAGGAGUGAAAA [71%, Same state of confusion2, 2]", "apparent KD of MS2 coat protein": 88.6}, {"sequence": "GAACCACAUGAGGAUCACCCAUGUCUAAGAAAUUAAGGAUAUGCACAAAAGGAAAUAACUGCAGAAGGUAAACGAA [Redo]", "apparent KD of MS2 coat protein": 33.1}, {"sequence": "GGGAGGAAGAGAGAGGAUAUCCAAAGGAAAACAUGAGGAUCACCCAUGUAAAAGGUAGGAAAUUGGGAGAAGGCUCAAAAGAGGC [salish99-ss2-042]", "apparent KD of MS2 coat protein": 46.6}, {"sequence": "AGAAUAAAAACAGAGGAUAUCCAAAAGAAAACAUGAGGAUCACCCAUGUAAAAGAAAAUAAAAUGGGAGAAGGCUGAAAUAAAGA [Mat - Same State 2 - Eli mod - D97]", "apparent KD of MS2 coat protein": 33.2}, {"sequence": "GCACCACAUGAGGAUCACCCAUGUAAAACGUAGCAAGGAUAUGGGCACGGAUAAUUCCGAUCAGAAGGUGUAACGC [Gemaditera]", "apparent KD of MS2 coat protein": 35.2}, {"sequence": "AAACCACAUGAGGAUCACCCAUGUGAAAUACACAUAGGAUAUGCGAAAAGAAACAAAGAAGCAGAAGGGUGAAAAA [75%, Ex sub1, 17]", "apparent KD of MS2 coat protein": 41.3}, {"sequence": "UAACUACAUGAGGAUCACCCAUGUCAAAUAAAUCGAGGAUAUGGGACGCAAAACGUCUGACCAGAAGGCGAAACAA [Maquriceri]", "apparent KD of MS2 coat protein": 132}, {"sequence": "CGCAGGAAGAGAGAGGAUAUCCAAAGGAAAACAUGAGGAUCACCCAUGUAAAAGGUAGGAAAUUGGGAGAAGGCUCAAGAGAGAG [salish99-ss2-100]", "apparent KD of MS2 coat protein": 40.9}, {"sequence": "AAGAUACAUGAGGAUCACCCAUGUCACCUCACACGAGGAUAUCUGUGCAGUACUCAGUACGGAGAAGGCGUGGAAA [Mat - Same State 1 - Hyphema mod - D98]", "apparent KD of MS2 coat protein": 56.4}, {"sequence": "AUAAAAGAAGCGAAGGAUAUCCAAAGGACCACAUGAGGAUCACCCAUGUAAAGAAAGAAAAAAUGGGAGAAGGUCGCAAAGAAUA [73%, More Fisker Same State 2, D3, 7]", "apparent KD of MS2 coat protein": 97.4}, {"sequence": "AACAUACAUGAGGAUCACCCAUGUUCCGGCAGGUCAGGAUAUGUAUCGAAAGAGUUAUAAACAGAAGGGACAUAAA [JR_SS001_Sub010]", "apparent KD of MS2 coat protein": 56.9}, {"sequence": "UAGAGGAAGAGAGAGGAUAUCCAAAGGAAAACAUGAGGAUCACCCAUGUAAAAGGUAGGAAAUUGGGAGAAGGCUCAAGAGAGAG [salish99-ss2-062]", "apparent KD of MS2 coat protein": 30.3}, {"sequence": "AAAGACAUGGUGCAGGAUAUAUUAAUAGUCACAUGAGGAUCACCCAUGUUCAUAUAUAUGAACGAGUAGAAGGGCGAUGAAAAAA [SameState2 Malc#6]", "apparent KD of MS2 coat protein": 90.8}, {"sequence": "AGAAAUAAAAGCUAGGAUAUCCAAAAGAAAACAUGAGGAUCACCCAUGUGAAAGAAAAUAAAAUGGGAGAAGGAGCAAAAUAAGA [Topaz 51]", "apparent KD of MS2 coat protein": 31}, {"sequence": "AUAACACAUGAGGAUCACCCAUGUAGAUCCACGUCAGGAUAUGCAAAGAAAAUAAACAAAGCAGAAGGGACAAUAA [SS 1 Tesla 1]", "apparent KD of MS2 coat protein": 49.6}, {"sequence": "AAUAGACAUGAGGAUCACCCAUGUAGAAUUAUGGGAGGAUAUACAAAGACGAGAGUCAGAGUAGAAGGCCUAGGAA [salish99-ss1-148]", "apparent KD of MS2 coat protein": 71.5}, {"sequence": "CGGAGACAUGAGGAUCACCCAUGUGAGAAGAGGCGAGGAUAUCGAAAGAAAGAAGAGAAACGAGAAGGCGCGAGCC [salish99-SS1-080(!)]", "apparent KD of MS2 coat protein": 31.4}, {"sequence": "AACAAUCUAUCUGAGGAUAUCAUGUAAAAGACAUGAGGAUCACCCAUGUAGCAGGAAACUGCACAUGAGAAGGCAGAUAGAUUGA [SS2: 1124]", "apparent KD of MS2 coat protein": 19.6}, {"sequence": "GAAAAACAUGAGGAUCACCCAUGUAGAAAUAUGGAAGGAUAUACAAAGACGAAAGUCAAAGUAGAAGGUCUAAAAG [Mat - Same State 1 - Eli mod - D13]", "apparent KD of MS2 coat protein": 19.8}, {"sequence": "AUUCCAACUAGUCAGGAUAUCAGGCGUAAGACAUGAGGAUCACCCAUGUACUUAGUACAAGUAACUGAGAAGGGACAGGGUGUAA [JR_SS002_Sub408]", "apparent KD of MS2 coat protein": 25.3}, {"sequence": "AACAAUCUAUCUGAGGAUAUCAAGUCAAAGACAUGAGGAUCACCCAUGUGCAGGAAAACUGCACUUGAGAAGGCAGAUAGAUUGA [SS2: 1109]", "apparent KD of MS2 coat protein": 9.63}, {"sequence": "AAGAGACAUGAGGAUCACCCAUGUAGGAUUAUGGGAGGAUAUACAAAGACGAGAGUCAGAGUAGAAGGCCUAGGAA [salish99-ss1-129(!)]", "apparent KD of MS2 coat protein": 65.1}, {"sequence": "AAAAGACAUGAGGAUCACCCAUGUCAAAACGUGGGAGGAUAUGCAUGGAAAACAUGCUGUGCAGAAGGCCCGUGUC [SS1 - 21]", "apparent KD of MS2 coat protein": 46.4}, {"sequence": "AUAAAACAUGAGGAUCACCCAUGUAGACACGUGGGAGGAUAUACUAGAUCGAAAGAUCUAGUAGAAGGCCUUCGUA [Mat - Same State 1 - JL mod - D94]", "apparent KD of MS2 coat protein": 38.4}, {"sequence": "AGAAAUAAAAGAGAGGAUAUCCUAAAGAAAACAUGAGGAUCACCCAUGUAAAAGAAAAUAAAAUGGGAGAAGGCUCAAAAUAAAG [80%, More Helter Skelter 2]", "apparent KD of MS2 coat protein": 39.5}, {"sequence": "CGAAAGGAGAGAGAGGAUAUCCAAAGGAAAACAUGAGGAUCACCCAUGUAGAAGGUAGGAGAUUGGGAGAAGGCUCAAGAUAGAG [salish99-ss2-145]", "apparent KD of MS2 coat protein": 73.2}, {"sequence": "GGAAAUAACAGAGAGGAUAUCCAAAGGAAAACAUGAGGAUCACCCAUGUAAAAGGAAGGAAAUUGGGAGAAGGCUCAAAAUAGAA [salish99-ss2-019]", "apparent KD of MS2 coat protein": 26.7}, {"sequence": "GGGAGACAUGAGGAUCACCCAUGUGAAAACGUGUCAGGAUAUGUAUGGAAACCAUACUGUACAGAAGGGACUUGUC [Quintus Rammius Martialis]", "apparent KD of MS2 coat protein": 89.2}, {"sequence": "AAAUAACAUGAGGAUCACCCAUGUUGCAGCGGUUGAGGAUAUGUGGGUGAAAAUAGCAUGGCAGAAGGCGAGUGUA [SameState1 Malc#26]", "apparent KD of MS2 coat protein": 71.9}, {"sequence": "AAGAAACAUGAGGAUCACCCAUGUGGAAAUAUGGGAGGAUAUACAAGGACGUAAGUCAAGGUAGAAGGCCUAAGAA [Mat - Same State 1 - Meechl mod - D138]", "apparent KD of MS2 coat protein": 134}, {"sequence": "AGGAAACAUGAGGAUCACCCAUGUAAAAGGUGGUUAGGAUAUGCAAAAAGAAAAAGAAAAGCAGAAGGGACAAGAA [mod of top voted: #1]", "apparent KD of MS2 coat protein": 600}, {"sequence": "AAAAAACAUGAGGAUCACCCAUGUAAAAAAAACGCAGGAUAUCCCUUUUUUAAAUGGGAGGGAGAAGGGUGAAAAA [Nob's Hobby 13 - Jieux - Same State 1]", "apparent KD of MS2 coat protein": 43.8}, {"sequence": "UAAUAAUAAACCAAGGAUAUGGAGUUUCCAACAUGAGGAUCACCCAUGUUUAGCAUGAAAUCGAUCCAGAAGGUGGAGCCAAAUA [JR_SS002_Sub1005]", "apparent KD of MS2 coat protein": 102}, {"sequence": "CUUAGACAUGAGGAUCACCCAUGUCGAACAAACAAAGGAUAUGGGAGCCGAAGAAGGCUAUUAGAAGGUUGCAAAA [Isesinbe]", "apparent KD of MS2 coat protein": 28.6}, {"sequence": "GGGAAGAACAGAGAGGAUAUCCAAAGGAAAACAUGAGGAUCACCCAUGUAAAAGGAAGGAAAUUGGGAGAAGGCUCAAAAGAGAA [salish99-ss2-023]", "apparent KD of MS2 coat protein": 36.4}, {"sequence": "AAGAAACAUGAGGAUCACCCAUGUAGAAAUAUGGGAGGAUAUACAAGGACGAAAGUCAAGGUAGAAGGCCUAAGAA [Mat - Same State 1 - Meechl mod - D132]", "apparent KD of MS2 coat protein": 112}, {"sequence": "AAUAUACAUGAGGAUCACCCAUGUUUUAAUAACUGAGGAUAUACGGGUGAAAACAGCAUAGUAGAAGGCAGAUAUA [SameState1 Malc#6]", "apparent KD of MS2 coat protein": 102}, {"sequence": "CGUGAACAUGAGGAUCACCCAUGUGAAAAACAUAGAGGAUAUGUCACAUGAGUGUAAAAGACAGAAGGCUAUCGUG [Mod 1 of Round 1 starryjess' Mod pf Nando]", "apparent KD of MS2 coat protein": 152}, {"sequence": "GAAAAACAUGAGGAUCACCCAUGUGACAACAUGGGAGGAUAUACGUGGACGAUAGUCAAAGUAGAAGGCCUAAAAG [Garnet 64]", "apparent KD of MS2 coat protein": 18.4}]}]}
